Legend:
[1] = biological target: T1, human-CD40-monomer protein (human, UniProt P25942 21-193, limits assumed); assay: SPR, Ab captured on protein A, hCD40 monomer 500 and 50 nM, 1:1 fit; purified
T1 construct: Soluble monomer generated in house, used as SPR analyte; also called hCD40; hCD40-monomer
Procedure: Titer analysis was performed using Biolayer Interferometry (BLI) on an Octet RED instrument (Fortebio) by capturing antibodies from supernatant using protein A sensor tips and measuring capture response with respect to a standard curve obtained using a control antibody sample. SPR data were obtained by capturing antibodies on a protein A surface and testing the binding of 500 nM and 50 nM injections of human-CD40 analyte, using a BIAcore™ T200 instrument (GE Healthcare). The kinetic data for the two concentrations of hCD40-monomer were fit to a 1:1 Langmuir model, to yield estimates of the kinetic and affinity values for these interactions, and for comparison of the different molecules.

[2] = biological target: T1, human-CD40-monomer protein; assay: SPR, Ab captured on protein A, 1 uM hCD40 monomer, single concentration, apparent value
Procedure: The CD40 kinetic and affinity data for human-CD40 monomer binding to mouse anti-human CD40 antibodies captured on a protein A sensor chip surface were assessed by SPR. The data shown are for a single concentration of CD40 analyte (1 μM) and are therefore reported as apparent (app) values.

T1 sequence (P25942 21-193 limits assumed): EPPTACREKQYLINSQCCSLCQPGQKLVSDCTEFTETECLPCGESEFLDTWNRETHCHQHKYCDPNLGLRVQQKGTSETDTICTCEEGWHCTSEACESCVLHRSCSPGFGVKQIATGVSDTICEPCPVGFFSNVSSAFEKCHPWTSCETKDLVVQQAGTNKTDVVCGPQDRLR

Binder	Kd [1]	koff [1]	kon [1]	Kd [2]	koff [2]	kon [2]
Y1268-hIgG1f (antibody, V domains shown, Purified chimeric antibody with human wild-type IgG1f; also called purified chimeric Y1268; Chim-P) VH: QVQLQQPGAELVKPGASVRLSCKASGYAFTSYWMHWVKQRPGQGLEWIGQINPSNGRSQYNEKFKTMATLTVDKSSSTAYIQLSSLTSEDSAVYYCARWGLQPFAYWGQGTLVTVSA VL: DIVMTQSHKFMSTSVGDRVSITCKASQDVSTAVAWYQQKPGQSPKLLIYSASYRYTGVPDRFTGSGSGTDFTFTISSVQAEDLAVYYCQQHYSTPWTFGGGTKLEIK	3.2 nM	0.0013 s⁻¹	400000 M⁻¹ s⁻¹	–	–	–
ADX_Y1238.ZZ0-1 (antibody, V domains shown, Mouse anti-human-CD40 antibody) VH: QVQLQQSGAELVRPGTSVKVSCKASGYAFTNYLIEWVKQRPGQGLEWIGVINPGSGGTNYNEKFKGKATLTADKSSSTAYMQLSSLTSDDSAVYFCARSQLGRRFDYWGQGTTLTVSS VL: DIVMTQSHKFMSTSVGDRVSITCKASQDVRTGVAWYQQKPGQSPKLLIYSASYRNTGVPDRFTGSRSGTDFTFTISSVQAEDLAVYYCQQHYSPPYTFGGGTKLEIK	–	–	–	2.2 nM	0.00012 s⁻¹	55000 M⁻¹ s⁻¹
Y1258-hIgG1f (antibody, Purified chimeric antibody, mouse variable regions with human wild-type IgG1f; also called purified chimeric Y1258; Chim-P) heavy: not shown VL: DIVMTQSHKFMSTSVGDRVSITCKASQDVSTAVAWYQQKPGQSPKLLIYSASYRYTGVPDRFTGSGSGTDFTFTISSVQAEDLAVYYCQQHYSTPWTFGGGTKLEIK	0.01 nM	5.9e-07 s⁻¹	58000 M⁻¹ s⁻¹	–	–	–
ADX_Y1268.ZZ0-1 (antibody, V domains shown, Mouse anti-human-CD40 antibody) VH: QVQLQQPGAELVKPGASVRLSCKASGYAFTSYWMHWVKQRPGQGLEWIGQINPSNGRSQYNEKFKTMATLTVDKSSSTAYIQLSSLTSEDSAVYYCARWGLQPFAYWGQGTLVTVSA VL: DIVMTQSHKFMSTSVGDRVSITCKASQDVSTAVAWYQQKPGQSPKLLIYSASYRYTGVPDRFTGSGSGTDFTFTISSVQAEDLAVYYCQQHYSTPWTFGGGTKLEIK	–	–	–	1.4 nM	0.00046 s⁻¹	320000 M⁻¹ s⁻¹
